Laboratory results: patent US20210301026A1 (ULTRAHUMAN TWELVE, published 2021)
Positions count from the first letter of the chain named. Names may count otherwise.

T1: monomeric cynomolgus monkey CSF1R ectodomain protein (cynomolgus monkey, UniProt P07333 20-517 (human entry))
T1 construct: also called monomeric cyno CSF1R; Cyno CSF1R
T1 chain: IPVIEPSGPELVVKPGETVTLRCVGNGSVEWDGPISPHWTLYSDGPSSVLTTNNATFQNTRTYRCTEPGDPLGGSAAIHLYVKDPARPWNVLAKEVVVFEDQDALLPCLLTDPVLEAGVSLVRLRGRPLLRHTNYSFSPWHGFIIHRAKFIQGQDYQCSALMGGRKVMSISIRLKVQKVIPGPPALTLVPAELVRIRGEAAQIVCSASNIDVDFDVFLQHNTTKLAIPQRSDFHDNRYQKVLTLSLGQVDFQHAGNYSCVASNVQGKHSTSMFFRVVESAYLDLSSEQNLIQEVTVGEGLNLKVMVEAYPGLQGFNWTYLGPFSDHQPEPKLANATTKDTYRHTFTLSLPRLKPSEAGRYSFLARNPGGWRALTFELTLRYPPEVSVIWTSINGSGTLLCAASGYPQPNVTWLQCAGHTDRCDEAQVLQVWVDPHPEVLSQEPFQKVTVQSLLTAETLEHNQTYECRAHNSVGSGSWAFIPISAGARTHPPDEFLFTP

T2: cynomolgus monkey CSF1R human Fc tagged recombinant protein (cynomolgus monkey, UniProt P07333 20-517 (human entry), limits assumed)
T2 construct: also called cyno CSF1R-Fc
T2 chain: T1 chain

B1: murine anti-CSF1R antibody 0301 (mu0301), v-domains in human IgG4(S228P) format (antibody, V domains shown)
VH: EVQLQQSGPELVRPGASVKMSCKASGYTFTDNYMIWVKQSHGKSLEWIGDINPYNGGTTFNQKFKGKATLTVEKSSSTAYMQLNSLTSEDSAVYYCARESPYFSNLYVMDYWGQGTSVTVSS
VL: NIVLTQSPASLAVSLGQRATISCKASQSVDYDGDNYMNWYQQKPGQPPKLLIYAASNLESGIPARFSGSGSGTDFTLNIHPVEEEDAATYYCHLSNEDLSTFGGGTKLEIK
B2: MH5 (antibody, human IgG4, V domains shown)
VH: QVQLVQSGAEVKKPGSSVKVSCKASGYTFSSYYMIWVRQAPGQGLEWMGDINPYNGGANYAQKFQGRVTITADESTSTAYMELSSLRSEDTAVYYCAREGPYFSNLYVMDYWGQGTLVTVSS
VL: EIVLTQSPATLSLSPGERATLSCRASQSVSYEGENYLNWYQQKPGQAPRLLIYAASNRATGIPARFSGSGSGTDFTLTISSPEPEDFAVYYCQLSNEDLLTFGGGTKVEIK
notes: Designer (maximally humanized) clone; tested as human IgG4(S228P)/Ckappa IgG; also called mAb-2
B3: MH13 (antibody, human IgG4, V domains shown)
VH: B2 VH with Y32N
VL: B2 VL
notes: Deimmunized MH5 derivative, human IgG4(S228P)/Ckappa IgG
B4: MH33 (antibody, human IgG4, V domains shown)
VH: B2 VH with Y32A, Q114R
VL: B2 VL
notes: as for B3
B5: 30C11 (antibody, human IgG4, V domains shown)
VH: B2 VH with S30T, Y32N, G57T, N59T, G100D
VL: B2 VL with E34D, R58L, A59E, P82L, E97Q
notes: Library-derived clone, tested as human IgG4(S228P)/Ckappa IgG; framework residue limits counted on the grafts
B6: MH9 (antibody, V domains shown)
VH: B2 VH with M34I, G57T
VL: B2 VL with N38A, P82L, E97Q
notes: Designer clone, human IgG4(S228P)/Ckappa IgG
B7: 29E11 (antibody, human IgG4, V domains shown)
VH: B2 VH with S30T, G57T, N59T
VL: B2 VL with E32D, N38A, P82L
notes: as for B5
B8: MH14 (antibody, human IgG4, V domains shown)
VH: B2 VH with Y32A
VL: B2 VL with L50S, L51A
notes: as for B3
B9: MH31 (antibody, human IgG4, V domains shown)
VH: B2 VH with Y32A, Q114R
VL: B2 VL with L50A, L51A
notes: as for B3
B10: MH23 (antibody, human IgG4, V domains shown)
VH: B2 VH with Y32H
VL: B2 VL with L50A, L51A
notes: as for B3
B11: MH38 (antibody, human IgG4, V domains shown)
VH: B2 VH with Y32H, Q114R
VL: B2 VL with L50S, L51A
notes: as for B3
B12: MH22 (antibody, human IgG4, V domains shown)
VH: B2 VH with Y32H
VL: B2 VL with L50S, L51A
notes: as for B3
B13: 29D10 (antibody, human IgG4, V domains shown)
VH: B2 VH with S30T, Y60F
VL: B2 VL with P82L
notes: as for B5

Target: T1, monomeric cynomolgus monkey CSF1R …
Experiment: SPR Biacore, IgG captured, monomeric CSF1R analyte
Protocol: (§1) Affinity (KD) of purified IgGs was determined via SPR with antigen in-solution on a Biacore 3000 (GE). A mouse anti-human antibody (CH1 specific) was immobilized on a CM5 Sensor Chip to a level of 2000 RU in acetate buffer at pH 4.5 using amine coupling following the Wizard instructions for two channels. One channel was used for background signal correction. The standard running buffer HBS-EP pH 7.4 was used. Regeneration was performed with a single injection of 10 μl of 10 mM Glycine at pH 1.5 at 20 μl/minute. IgG samples were injected for 2 minutes at 50 nM at 30 μl/min followed by and off-rate of 60 seconds. The monomeric ectodomain protein (human CSF1R or cynomolgus monkey CSF1R) was injected in two fold serial dilutions from 100 nM down to 3.1 nM, for 2 minutes at 30 μl/min followed by an off-rate of 300 seconds. The obtained sensorgrams were analysed using the Biacore 3000 evaluation (BIAevaluation) software. The KD was calculated by simultaneous fitting of the association and dissociation phases to a 1:1 Langmuir binding model.

Kd [nM] | koff [s⁻¹] | kon [M⁻¹ s⁻¹] | fold of the affinity of hu0301 [fold] | Binder
0.1 | 7.4e-05 | 740000 |  | B1
0.62 | 0.00031 | 500000 |  | B2
0.723 | 0.000598 | 827000 | ≤ 2 | B3
1.74 | 0.00115 | 660000 |  | B4

Target: T3, monomeric human CSF1R ectodomain protein (human, UniProt P07333 20-517)
T3 construct: also called biotinylated monomeric human CSF1R
Experiment: SPR Biacore, IgG captured, monomeric CSF1R analyte
Protocol: as §1

Kd [nM] | koff [s⁻¹] | kon [M⁻¹ s⁻¹] | fold of the affinity of hu0301 [fold] | Binder
0.024 | 6.9e-05 | 2.9e+06 |  | B1
0.22 | 0.00036 | 1.7e+06 |  | B2
0.397 | 0.000673 | 1.69e+06 | ≤ 2 | B3
1.09 | 0.00144 | 1.32e+06 |  | B4

Target: T4, human CSF1R human Fc tagged recombinant protein (human, UniProt P07333 20-517)
T4 construct: also called human CSF1R-Fc
Experiment: direct titration ELISA on coated human CSF1R-Fc, IgG4(S228P) format, OD 450 nm
Protocol: (§2) Binding and cross-reactivity of the lead panel to the recombinant proteins was initially assessed by binding ELISA. The human CSF1R human Fc tagged recombinant protein and the cynomolgus monkey CSF1R human Fc tagged recombinant protein were coated to the surface of MaxiSorp™ flat-bottom 96 well plate at 1 μg/ml. The purified IgG samples were titrated in two fold serial dilutions starting from 500 nM to 0.008 nM and allowed to bind to the coated antigens. The Fabs were detected using mouse anti-c-myc antibody followed by donkey anti-mouse IgG conjugated to horseradish peroxidase. The IgGs were detected using the mouse anti-human IgG conjugated to horseradish peroxidase. Binding signals were visualized with 3,3′,5,5′-Tetramethylbenzidine Substrate Solution (TMB) and the absorbance measured at 450 nm.

EC50 (read off the curve) [nM] | binding result | Binder
~0.1 |  | B1
 | binds | B5
~10 |  | B6
 | binds | B7

Target: T2, cynomolgus monkey CSF1R human Fc tagged …
Experiment: direct titration ELISA on coated cyno CSF1R-Fc, IgG4(S228P) format, OD 450 nm
Protocol: as §2

EC50 (read off the curve) [nM] | binding result | Binder
~0.2 |  | B1
 | binds | B8
 | binds | B9
 | binds | B10
 | binds | B11
 | binds | B12

Target: T3, monomeric human CSF1R ectodomain protein
Experiment: AlphaScreen competition with mu0301 IgG4(S228P) for biotinylated monomeric human CSF1R
Protocol: The AlphaScreen assay (Perkin Elmer) was performed in a 25 μl final volume in 384-well white microtiter plates (Greiner). The reaction buffer contained 1×PBS pH 7.3 (Oxoid, Cat. nr. BR0014G) and 0.05% (v/v) Tween® 20 (Sigma, Cat. nr. P9416). Purified IgG samples were titrated in three fold serial dilutions starting at 500 nM final concentration and incubated with biotinylated human CSF1R for 20 minutes at room temperature. […] The emission of light was measured in the EnVision multilabel plate reader (Perkin Elmer) and analysed using the EnVision manager software. Values were reported as Counts Per Second (CPS) and corrected for crosstalk. The EC50 values were calculated using the […] in GraphPad Prism software (GraphPad Software, La Jolla, Calif.).

IC50 [nM] | Binder
1.29 | B1
2.18 | B2
1.93 | B13

Target: T1, monomeric cynomolgus monkey CSF1R …
Experiment: SPR Biacore, IgG captured, monomeric CSF1R analyte
Remark: another data set of the same source
Protocol: as §1
(§3) Biacore analyses of binding affinity were performed for all IgGs to solution-phase, monomeric human and cyno CSF1R proteins (Table 6). […] Affinity differentials of less than 3-fold between human and cyno target orthologs are highly beneficial in pre-clinical drug development analyses as they allow more accurate design and interpretation of e.g. monkey safety, PK and PD modelling experiments.

Kd [nM] | koff [s⁻¹] | kon [M⁻¹ s⁻¹] | Binder
0.1 | 7.4e-05 | 740000 | B1
0.62 | 0.00031 | 500000 | B2
0.42 | 0.00022 | 520000 | B13

Target: T3, monomeric human CSF1R ectodomain protein
Experiment: SPR Biacore, IgG captured, monomeric CSF1R analyte
Remark: another data set of the same source
Protocol: as §1, §3

Kd [nM] | koff [s⁻¹] | kon [M⁻¹ s⁻¹] | Binder
0.024 | 6.9e-05 | 2.9e+06 | B1
0.22 | 0.00036 | 1.7e+06 | B2
0.2 | 0.00037 | 1.9e+06 | B13

Target: T4, human CSF1R human Fc tagged recombinant …
Experiment: direct titration ELISA on coated human CSF1R-Fc, IgG4(S228P) format, OD 450 nm
Remark: another data set of the same source
Protocol: as §2

EC50 (read off the curve) [nM] | binding result | Binder
~0.1 |  | B1
 | binds | B8
 | binds | B9
 | binds | B10
 | binds | B11
 | binds | B12

Target: T5, human CSF1R, membrane-presented on cells (human, UniProt P07333 20-972)
T5 construct: HEK-293 cells transiently transfected with human CSF1R (flow cytometry); the native receptor on primary human monocytes in the proliferation assay; also called human CSF1R+ HEK-293 cells; CSF1R on primary human CD14+ monocytes
Experiment: flow cytometry on HEK-293 cells expressing human CSF1R, MFI

EC50 (read off the curve) [nM] | Binder
~1 | B1
~1 | B3
~0.7 | B4

Target: T1, monomeric cynomolgus monkey CSF1R …
Experiment: SPR Biacore; KD on monomeric cyno CSF1R against KD of the same clone on monomeric human CSF1R as reference
Protocol: as §1

human/cyno affinity differential [fold] | Binder
< 3 | B13

Target: T6, human insulin (human, UniProt P01308 25-54; P01308 90-110, limits assumed)
T6 construct: Coated antigen of the polyreactivity ('PK-risk indicator') ELISA
T6 sequence (P01308 25-54 limits assumed, chain 1 of 2): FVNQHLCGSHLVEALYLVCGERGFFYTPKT
T6 sequence (P01308 90-110 limits assumed, chain 2 of 2): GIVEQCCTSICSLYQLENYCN
Experiment: ELISA on human insulin (development risk, polyreactivity), binding score

binding result | Binder
no binding | B1
no binding | B8
no binding | B9
no binding | B10
no binding | B12
no binding | B3
no binding | B4

Target: T2, cynomolgus monkey CSF1R human Fc tagged …
Experiment: direct titration ELISA on coated cyno CSF1R-Fc, IgG4(S228P) format, OD 450 nm
Remark: another data set of the same source
Protocol: as §2

binding result | Binder
binds | B5
binds | B7
